Biological target: T1, GFP-p73α wild type, O15350
T1 chain: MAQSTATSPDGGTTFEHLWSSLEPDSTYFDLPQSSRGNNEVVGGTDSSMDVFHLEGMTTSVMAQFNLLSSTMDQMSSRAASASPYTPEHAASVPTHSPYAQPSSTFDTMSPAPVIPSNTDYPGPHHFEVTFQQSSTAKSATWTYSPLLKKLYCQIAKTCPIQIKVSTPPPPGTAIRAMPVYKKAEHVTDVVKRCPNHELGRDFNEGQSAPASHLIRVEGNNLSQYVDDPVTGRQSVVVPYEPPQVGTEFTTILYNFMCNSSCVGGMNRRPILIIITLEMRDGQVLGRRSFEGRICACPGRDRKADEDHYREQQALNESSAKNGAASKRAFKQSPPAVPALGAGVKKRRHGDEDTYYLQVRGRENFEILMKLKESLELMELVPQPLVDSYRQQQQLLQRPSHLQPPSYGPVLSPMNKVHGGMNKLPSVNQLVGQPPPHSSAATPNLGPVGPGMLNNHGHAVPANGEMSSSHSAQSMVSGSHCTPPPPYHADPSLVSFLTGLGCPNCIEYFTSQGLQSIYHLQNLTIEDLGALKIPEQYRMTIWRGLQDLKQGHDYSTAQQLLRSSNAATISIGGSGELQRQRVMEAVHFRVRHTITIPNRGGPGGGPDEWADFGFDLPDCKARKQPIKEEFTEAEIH
Experiment: cross-linking
Conditions: remark: other sources report otherwise

- stoichiometry N: 4
B1: GFP-p73α wild type, O15350-1 1-636 (natural protein)
chain: T1 chain
